Test results taken from the nanobody polyreactivity screen of Harvey et al. (2022).

Assay: yeast display, Sf9 membrane polyspecificity reagent, FACS + sequencing; frameworks hold sequencing errors
Outline: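 Nanobodies came from a synthetic yeast display library in Saccharomyces cerevisiae BJ5465, induced with galactose for 36–48 hours and stained for 1 hour at 4 °C with 10% biotinylated, detergent-solubilized Sf9 membrane reagent. Cells were enriched on streptavidin microbeads and then FACS-sorted, with low and high (top ~1%) gates set on anti-HA fluorescence for expression and streptavidin fluorescence for reagent binding. Each polyreactivity label reflects the gate a clone came from. Genes were amplified by colony PCR, sequenced by MiSeq 2 × 250 and filtered by CDR length.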

QVQLVESGGGKVQAGGSLRLSCAATGRNFGVYDMGSYRHSPGKERELVAAITARGGSTYYADSVKGRFTISRDNAKNTVYLQMNSLKPEDTAVYYCAASAGSAGHSGGYWGQGTQVTVSS
polyreactivity (PSR sort gate): high polyreactivity

QVQLVESGGGLVQAGGSLRLSCAASGRIFNAYATGWYRKAPGKERELVAAISSIGGRTYYADSVKGRFTISRDNAKNTVYLQMNSLKPEETAVYYCAARRRSRQYRYDYWGQGTQVTVSS
polyreactivity (PSR sort gate): high polyreactivity

QVQLVESGAGLVQAGGSLRLSCAASGFTLVLNAMGGYSQAPGKERELVAAIRRSAGSTYYADSVKGRFTISRDNAKNTVYLQMNSLKPEDTAVYYSNADYTYTDRRFAPAGGWYYYWGQGTQVTVSS
polyreactivity (PSR sort gate): low polyreactivity

QVQLVESGGGLVQAGGSLRLSCAASGFTFYYYAMGWYRQAPGKERELVAAITSSGGRTYYADSVKGRFTISRDNAKNTVYLQMNSLKPEDTAVYYCAATGFYHRGEYYYWGQGTQVTVSS
polyreactivity (PSR sort gate): low polyreactivity

QVQLVESGGGLVQAGGSLRLSCAASGSTFSVYAMGWYRQAPGKEMELVATITWNGGRTYYADSVKGRFTISRDNAKNTVYLQMNSLKPEDTAVYYCASPWLKPGNGIYGGYGYWGQGTQVTVSS
polyreactivity (PSR sort gate): high polyreactivity

QVQLVESGGGLVQAGGSLRLSCAASGSIVIINTMGWYRQAPGKERELVAAISWGGTDTNYADSVKGRFTISRDNAKNTVYVQMNSLKPEDTAVYYCNTDQDLVRSYDYWGQGTQVTVSS
polyreactivity (PSR sort gate): low polyreactivity

QVQLVESGGGLVQAGGSLRLSCAASGSTFAYYTMGWYRQAPGKERELVAAISASGGSTYYADSVKGRFTISRDFAKNTVYFQMNSLKPEDTAVYYCNAESYLTGWWVDYWGQGTQVTVSS
polyreactivity (PSR sort gate): low polyreactivity

QLQLVESGGGLVQAGGSLRLSCAASGLTFNTYAMGWSRQAPAKERELVAAITKGGGRTYYADSVKGRFTISRDNAKNTVYLQMNSLKPEDTAVYYCAVVSWYRYSRYENDYWGQGTQVTVSS
polyreactivity (PSR sort gate): high polyreactivity

QVQLVESGGGLVQAGGSLRLSCAASGRTDAYYAMGWYRQAPGKERELVAAITRGGSTYYADSVKGRFTISRDNAKNTVYLQMNSLKPEDTAVYYCAAATSPYQDDYWGQGTQVTVSS
polyreactivity (PSR sort gate): low polyreactivity

QVQLVESGGGLVQAGGSLRLSCAASGSTFTGNSMGWYRQAPGKERELVAAISSSGASTYYADSVKGPFTISRDNAKNTVYLQMNSLKPEDTAVYYCAAELFYYPTPFREYDYWGQGTQVTVSS
polyreactivity (PSR sort gate): low polyreactivity

QVQLVESGGGLVQAGGSHRLSCAASGSTFVLYALGWYRQAPGKERELVAVISWSGGSTYYADSVKGRFTISRDNAKNTVYLQMNSLKPEDTAVYYCAATGWSSFYYRFDYWGQGTQVTVSS
polyreactivity (PSR sort gate): low polyreactivity

QVQLVESGGGLVQAGGSLRLSCAASGRTFGRYAMGWYRQAPGKERELVAAISTSGGSTYYADSVKGRFTISRDNAKNTVYLQMNSLKPEDTAVYYCAATIGRRSYNQMYYWGQGTQVTVSS
polyreactivity (PSR sort gate): high polyreactivity

QVQLVESGGGLVQAGGSIRLSCAASGFIFGGYAMGWYRQAPGKERELVAAITRSGGSTYYADSVKGRFTISRDNAKTTVYFQMNSLKPEDTAVYYCAAVPYRKHSYPFRLNYWGQGTQVTVSS
polyreactivity (PSR sort gate): high polyreactivity

QVQLVESGGGLVQAGGSLRLSCAASGFIFRYYVMGWYRQAPGKERELVAAITGSGGSTYYADSVKGRFTISRDNAKNTVYLQMNSLKPEDTAVYYCAARVWPIVQNYYWGQGTQVTVSS
polyreactivity (PSR sort gate): high polyreactivity

QVQLVESGGGLVQAGGSLRLSCAASGRTFGGYAMGWYRQAPGKERELVAAISKSGGSTYYAVSVKGRFTISRDTAKNTVYLQMNSLKPEDTAVYYCAAQGSSYSTRVWRRYYYWGQGTQVTVSS
polyreactivity (PSR sort gate): high polyreactivity

QVQLLESGGGLVQAGGSLRLSCAASGTSAQEDWMGWYRQAPGKEREFVAAIGLGSHTNYADSLKGRFTISRDNAKNTVYLHMNSLKPEDTAVYYCAVSVWQYSDHVYRGQGTQVTVSS
polyreactivity (PSR sort gate): low polyreactivity

QVQLLESGGGLVQAGGSLRLSCAASGSIFGRYVMGWYRQAPGKERELVPRITQSGGSTYYADSVKGRFTISRDNAKNTVYLQMNSLKPEDTAVYYCNVARWGNIPVGEYDYWGQGTQVTVSS
polyreactivity (PSR sort gate): high polyreactivity

QVQLVESGGGLVQAGGSLRLTCAASGFTFTGNAMGWYRQAPGKEREFVAAISWSGGSTYYADSVKGRFTISRDNAKNTVYLQMNSLKPEDTAVYYCNKYRPYGRIYHLAYGRDYWGQGTQVTVSS
polyreactivity (PSR sort gate): high polyreactivity

QVQLVESGGGLVQAGGSLRLSCAASGFIFYYYAMGWYRQAPGKERELVAAITGSGGNTYYADSVKGRFTISRDNEKNSVFFHMNSLKPEDTAVYYCNTGYDRGGDYWGQGTQVTVSS
polyreactivity (PSR sort gate): high polyreactivity

QVQLVESGGGLVQAGGSLRLSCAASGIIFPFYAMGWYRQAPGKEREFVAAITSGDDTYYADSVKGRFTISRDNAKNTVYLQMNSLKPEDTAVYYCNKRLYIAGYWPQLYYIMDYWGQGTQVTVSS
polyreactivity (PSR sort gate): low polyreactivity

QVQLVESGGGLVQAGGSLRLSCAASGSIQYYAMGWYRQAPGKERELVAAIRFSGGRTYYADSVKGRFTISRDNAKNTVYLQMNSLKPEDTAVYYCAAYRSPRRSGAPSQGKFDYWGQGTQVTVSS
polyreactivity (PSR sort gate): low polyreactivity

QVQLVESGGGLVQAGGSLRLSCAASGFTFSGYDMGWSRQAPGKERELVAGISSGGVSTTYADSVKGRFTISRDNAKNTVYLQMNSRKPEDTAVYYCNAEWTSFDWGQGTQVTVSS
polyreactivity (PSR sort gate): low polyreactivity

QGQLVESGRGLVQAGGSLRLSCAASGRIFYSYAMGWYRQAPGKERELVAAISSGGSTKYADSVKGRFTISRDNAKNTVYLQMNSLKPEDTAVYYCAARTYQKGGRYYYWGQGTQVTVSS
polyreactivity (PSR sort gate): high polyreactivity

QVQLVESGGGLVQAGGSLRLSCAASGNIFYYYAMGWYRQAPGKERELVADITSGGDTDYADSVKGRFTISRDNAKNTVYLQMNSLKPEDTAVYYCNAEYYFHVTYDYWGQGTQVTVSS
polyreactivity (PSR sort gate): low polyreactivity

QVQLVESGGGLVQAGGSLRLSCAASGRIFRYYAMGWYRQAPGKERELVAAISYSGGRTYYADSVKGRFTISRDNAKNTVYLQMNSLKPEDTAVYYCNARARSRKFYYWGQGTQVTVSS
polyreactivity (PSR sort gate): high polyreactivity

QVQLVESGGGLVQAGGSLRLSCAASGRTFRSYAMGWYRQAPGKERELVAGITTSGGSTYYADSVKGRFTISRDNAKNTVYLQMNSLKPEDTAVYYCNARSWYSFHPHDYWGQGTQVTVSS
polyreactivity (PSR sort gate): high polyreactivity

QVHLVESGAGLVQAGGSLRLSCAASGGIFWVYAMGWYRQAPGKERELGAAISNSDTSTSYADSVKGRFTISRDNAKNTVYLQMTSLKPEDTAVYYCNADSPSLSGDYWGQGTQVTVSS
polyreactivity (PSR sort gate): low polyreactivity

QGQLVESGGGLVQAGGSLRLSCAASGSTIPVNAMAWYRQAPGKERELVAAITWGDGSTSYADSVKGRFTISRDNAKNTVYLQMNSLKPEDTAVYYCNKDFIYGYDAASYRPEYDYWGQGTQVTVSS
polyreactivity (PSR sort gate): low polyreactivity

QVQLVESGGGLVQAGGSLRLSCAASGSIFGFYAMGWYRQAPGKERELVAAITTGGSTYYADSVKGRFTISRDNAKNNVYFQMISLKPEDTAVYYCAKERWFPYERNDYWGQGTLVTVSS
polyreactivity (PSR sort gate): low polyreactivity

QVQLVESGGGLVQAGGSLRLSCAASGLTFVNYAMGWYRQAPGKERELVATISKTGGSTYYADSVKGRFTISRDNAKNTVYLQMNSLKPEDTAVYYCAARRARRSGYYYWGQGTQVTVSS
polyreactivity (PSR sort gate): high polyreactivity

QVQLVESGGGLVQAGGSLRISCAASGSTYRKYTMGWYRQAPGNERDLVATISWSGGSTNYADSVKGRFTISRDNAKTIVYLQMISLKPDDTAVYYCNAYVSPRYRGSRYYYWGQGTQVTVSS
polyreactivity (PSR sort gate): high polyreactivity

QVQLVESGGGLVQAGGSLRLSCAASGITFLVYVMGWYRQAPGKERELVAAISSGGSTYYADSVKGRFTISRDNAKNTVYLQMNSLKPEDTAVYYCSADTVGTNVVSPELDYWGQGTQVTVSS
polyreactivity (PSR sort gate): low polyreactivity

QVHLVEAGVGLVQAGGSLRVSCAASGFTFCRYAMVWYRQAPGKERELVAAIRYSGSSTYYADSVKGRFTISRDNAKNTVYLQMNSLKPEDTAVYYCAKRYYGNDYWGQGTQVTVSS
polyreactivity (PSR sort gate): high polyreactivity

QVQLVESGGGLVQAGGSLRLTCAASGSTFYFNAIGWYRQAPGKESELVAAISGGGRTNYADSVKGRFTISRDNAKNTVYLQMNSLKPEDTAVYYCAARNRGLRLSNYFGGNYNRDYWGQGTQVTVSS
polyreactivity (PSR sort gate): low polyreactivity

QVQLVESGGCLVQAGGSLRLSCAASGFTFYAYTMGWYRQAPGKERELVAAITKTGSRTYYADSVKGRFTISRDNAKNTVYLQMNSLKPEDTAVYYCAAASYIRVKGISRYDSWGQGTQVTVSS
polyreactivity (PSR sort gate): high polyreactivity

QVQLVESGGGLVQAGGSLRLSCAASGFTFWLYAMGWYRQAPGKERELVAAISRNSVSTYYADSVKGRFTISRDNAKNTVYLQMNSLKPEDTAVYYCAVDQYATDDYWGQGTQVTVSS
polyreactivity (PSR sort gate): high polyreactivity

QVQLVESGGGLVQAGGSLRLSCAASGSTFTAYAMGWYRQAPGKERELVADISKRSGGTYYADSVKGRFTISRDNAKNTVYLQMNSLKPEDTAVYYCGQGTQVTVSS
polyreactivity (PSR sort gate): low polyreactivity

QVQLVESGGGLVQAGGSLRLSCAASGRTFDSYTMGWYRQAPGKERELVAAINYSVASTNYADSLKGRFTISRDNAKITVYLQMNSLKTEDTAVYYCNRASAGWGPGTQVTVSS
polyreactivity (PSR sort gate): low polyreactivity

QVQLVESGGGLVQAGGRLRLSCAASGSIFRSNAMGWYRLAPGKEREFVAASTRSGGSTYYADTVKGRFTISRDNAKNTVYLQMNSLKPAATAVYYCAADWKSYAYYYWGQGTQVTVSS
polyreactivity (PSR sort gate): high polyreactivity

QVQLVDSGGGLVQAGGSLRLSCAASGSTFTYNSMGGYRQAPGKERELVAAITWSSDITYYADSVKGRFTISRDNAKNTVYLQMNSLIAEDTAVYYCAAYLFGPSIDDYPAFYYDYGYWGQGTQVTVSS
polyreactivity (PSR sort gate): low polyreactivity

QVQLVESGGGLVQAGGSLRLSCAASGSIFYSNVMGWYRQAPGKERELVAAISKNGGSTYYADSVKGRFTISRDNAKNTVYLQMNSLKPEDTAVYYCAKYGYVGTTYGYWGQGTQVTVSS
polyreactivity (PSR sort gate): high polyreactivity

QVQLVESGGGLVQAGGSLRLRCAASGFTFGRYAMGGYRQAPGKERELVAGITSGGSTYYADSVKGRFTISLDNAKNTVYLQMNSLKPEDTAVYYCITKVISRTSERRGNGFTRYDYWGQGTQVTVSS
polyreactivity (PSR sort gate): low polyreactivity

LVQLQESGGGLVQAGGSLRLSCAASGTISPGGYMAWYRQAPCTERELVASINVGGSTNYADSVKGRFTISRDNAKNTVYLQMNSLKPEDNALYYCAVWGRNRLQLSYWGQGTQVTVIS
polyreactivity (PSR sort gate): low polyreactivity
